The labels stand for the following.
B1: GpH7-A5/GpH7-B3 variant Y296_19Q/GpL16-k0 (antibody, human IgG1, kappa)
heavy 1: not shown
heavy 2: not shown
light: DIVMTQSPLSLPVTPGEPASISCQASESLVHSNRNTYLHWYLQKPGQSPQLLIYKVSNRFSGVPDRFSGSGSGTDFTLKISRVEAEDVGVYYCSQNTHVPPTFGQGTKVEIERTVAAPSVFIFPPSDEQLKSGTASVVCLLNNFYPREAKVQWKVDNALQSGNSQESVTEQDSKDSTYSLSSTLTLSKADYEKHKVYACEVTHQGLSSPVTKSFNRGEC
notes: He Ab: mutation only in the GpH7-B3 H chain; EU numbering; also called He Ab
B2: GpH7-A5/GpH7-B3 variant S298_11K/GpL16-k0 (antibody, human IgG1, kappa)
heavy 1: not shown
heavy 2: not shown
light: B1 light
notes: as for B1
B3: GpH7-A5/GpH7-B3 variant Q295_11K/GpL16-k0 (antibody, human IgG1, kappa)
heavy 1: not shown
heavy 2: not shown
light: B1 light
notes: as for B1
B4: GpH7-A5/GpH7-B3 variant Q295_14T/GpL16-k0 (antibody, human IgG1, kappa)
heavy 1: not shown
heavy 2: not shown
light: B1 light
notes: as for B1
B5: GpH7-A5/GpH7-B3 variant S298_09D/GpL16-k0 (antibody, human IgG1, kappa)
heavy 1: not shown
heavy 2: not shown
light: B1 light
notes: as for B1
B6: GpH7-A5/GpH7-B3 variant S298_03V/GpL16-k0 (antibody, human IgG1, kappa)
heavy 1: not shown
heavy 2: not shown
light: B1 light
notes: as for B1
B7: GpH7-A5/GpH7-B3 variant Y296_09D/GpL16-k0 (antibody, human IgG1, kappa)
heavy 1: not shown
heavy 2: not shown
light: B1 light
notes: as for B1
B8: GpH7-A5/GpH7-B3 variant S298_16H/GpL16-k0 (antibody, human IgG1, kappa)
heavy 1: not shown
heavy 2: not shown
light: B1 light
notes: as for B1
B9: GpH7-A5/GpH7-B3 variant Y296_06M/GpL16-k0 (antibody, human IgG1, kappa)
heavy 1: not shown
heavy 2: not shown
light: B1 light
notes: as for B1
B10: GpH7-A5/GpH7-B3 variant Y296_01G/GpL16-k0 (antibody, human IgG1, kappa)
heavy 1: not shown
heavy 2: not shown
light: B1 light
notes: as for B1
B11: GpH7-A5/GpH7-B3 variant Q295_18N/GpL16-k0 (antibody, human IgG1, kappa)
heavy 1: not shown
heavy 2: not shown
light: B1 light
notes: as for B1
B12: GpH7-A5/GpH7-B3 variant Q295_13S/GpL16-k0 (antibody, human IgG1, kappa)
heavy 1: not shown
heavy 2: not shown
light: B1 light
notes: as for B1
B13: GpH7-A5/GpH7-B3 variant Y296_07I/GpL16-k0 (antibody, human IgG1, kappa)
heavy 1: not shown
heavy 2: not shown
light: B1 light
notes: as for B1
B14: GpH7-A5/GpH7-B3 variant Y296_12R/GpL16-k0 (antibody, human IgG1, kappa)
heavy 1: not shown
heavy 2: not shown
light: B1 light
notes: as for B1
B15: GpH7-A5/GpH7-B3 variant Y296_02A/GpL16-k0 (antibody, human IgG1, kappa)
heavy 1: not shown
heavy 2: not shown
light: B1 light
notes: as for B1
B16: GpH7-A5/GpH7-B3 variant S298_01G/GpL16-k0 (antibody, human IgG1, kappa)
heavy 1: not shown
heavy 2: not shown
light: B1 light
notes: as for B1
B17: GpH7-A5/GpH7-B3 variant Q295_15Y/GpL16-k0 (antibody, human IgG1, kappa)
heavy 1: not shown
heavy 2: not shown
light: B1 light
notes: as for B1
B18: GpH7-A5/GpH7-B3 variant Y296_16H/GpL16-k0 (antibody, human IgG1, kappa)
heavy 1: not shown
heavy 2: not shown
light: B1 light
notes: as for B1
B19: GpH7-A5/GpH7-B3 variant Y296_13S/GpL16-k0 (antibody, human IgG1, kappa)
heavy 1: not shown
heavy 2: not shown
light: B1 light
notes: as for B1
B20: GpH7-A5/GpH7-B3 variant S298_18N/GpL16-k0 (antibody, human IgG1, kappa)
heavy 1: not shown
heavy 2: not shown
light: B1 light
notes: as for B1
B21: GpH7-A5/GpH7-B3 variant Y296_10E/GpL16-k0 (antibody, human IgG1, kappa)
heavy 1: not shown
heavy 2: not shown
light: B1 light
notes: as for B1

The first experiment deals with T1, FcγRIIb (human, UniProt P31994 43-217).
T1 construct: extracellular domain; also called FcgRIIb; 2b; not shown: His tag at the C terminus
T1 sequence (looked up): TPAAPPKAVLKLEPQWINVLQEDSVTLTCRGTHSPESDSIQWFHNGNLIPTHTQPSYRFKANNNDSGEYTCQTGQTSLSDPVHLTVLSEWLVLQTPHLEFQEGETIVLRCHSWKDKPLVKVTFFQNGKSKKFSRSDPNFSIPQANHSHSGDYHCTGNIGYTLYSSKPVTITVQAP
Description: SPR (Biacore), captured antibody, soluble FcγR; relative to GpH7-A5/GpH7-B3/GpL16-k0.
As to B1, the He/Con_2b is 89.3 relative, HeCon Ab = 100.

Turning to B2, the He/Con_2b is 61.3 relative, HeCon Ab = 100.

B3: the He/Con_2b was 70.4 relative, HeCon Ab = 100.

Consider B4, for which the He/Con_2b was 66.8 relative, HeCon Ab = 100.

In the case of B5, the He/Con_2b is 48.3 relative, HeCon Ab = 100.

As to B6, the He/Con_2b is 64.5 relative, HeCon Ab = 100.

As to B7, the He/Con_2b is 98.9 relative, HeCon Ab = 100.

For B8, the He/Con_2b was 63.5 relative, HeCon Ab = 100.

Regarding B9, the He/Con_2b was 87.8 relative, HeCon Ab = 100.

Take B10: the He/Con_2b is 79.3 relative, HeCon Ab = 100.

For B11, the He/Con_2b was 64.9 relative, HeCon Ab = 100.

Take B12: the He/Con_2b is 56.9 relative, HeCon Ab = 100.

Regarding B13, the He/Con_2b was 84.3 relative, HeCon Ab = 100.

With B14, the He/Con_2b is 79.5 relative, HeCon Ab = 100.

With B15, the He/Con_2b is 82 relative, HeCon Ab = 100.

For B16, the He/Con_2b is 80.1 relative, HeCon Ab = 100.

Regarding B17, the He/Con_2b is 65.4 relative, HeCon Ab = 100.

On to B18, for which the He/Con_2b was 92.2 relative, HeCon Ab = 100.

Consider B19, for which the He/Con_2b is 86.3 relative, HeCon Ab = 100.

Take B20: the He/Con_2b is 48.1 relative, HeCon Ab = 100.

On to B21, for which the He/Con_2b was 98 relative, HeCon Ab = 100.

The target in the next experiment is T2, FcγRIa (human, UniProt P12314 16-292).
T2 construct: extracellular domain; also called FcgRI; 1a; not shown: His tag at the C terminus
T2 sequence (P12314 16-292): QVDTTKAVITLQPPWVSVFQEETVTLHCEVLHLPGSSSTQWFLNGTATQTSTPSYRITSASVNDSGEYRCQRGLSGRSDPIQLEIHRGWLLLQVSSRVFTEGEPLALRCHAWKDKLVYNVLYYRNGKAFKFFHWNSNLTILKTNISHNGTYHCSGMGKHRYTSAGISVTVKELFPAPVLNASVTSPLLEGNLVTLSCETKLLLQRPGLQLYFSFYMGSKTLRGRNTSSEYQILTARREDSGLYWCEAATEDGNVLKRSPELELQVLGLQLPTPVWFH
The experiment is described as above.
Regarding B1, the He/Con_1a is 112 relative, HeCon Ab = 100.

Turning to B2, the He/Con_1a is 109 relative, HeCon Ab = 100.

As to B3, the He/Con_1a is 101 relative, HeCon Ab = 100.

As to B4, the He/Con_1a was 103 relative, HeCon Ab = 100.

With B5, the He/Con_1a was 106 relative, HeCon Ab = 100.

On to B6, for which the He/Con_1a is 110 relative, HeCon Ab = 100.

Consider B7, for which the He/Con_1a is 106 relative, HeCon Ab = 100.

On to B8, for which the He/Con_1a was 109 relative, HeCon Ab = 100.

For the molecule B9, the He/Con_1a was 104 relative, HeCon Ab = 100.

In the case of B10, the He/Con_1a is 103 relative, HeCon Ab = 100.

For the molecule B11, the He/Con_1a is 102 relative, HeCon Ab = 100.

For B12, the He/Con_1a was 102 relative, HeCon Ab = 100.

Regarding B13, the He/Con_1a was 104 relative, HeCon Ab = 100.

In the case of B14, the He/Con_1a was 106 relative, HeCon Ab = 100.

Take B15: the He/Con_1a was 103 relative, HeCon Ab = 100.

Consider B16, for which the He/Con_1a is 104 relative, HeCon Ab = 100.

B17: the He/Con_1a was 102 relative, HeCon Ab = 100.

For the molecule B18, the He/Con_1a was 106 relative, HeCon Ab = 100.

In the case of B19, the He/Con_1a was 105 relative, HeCon Ab = 100.

Turning to B20, the He/Con_1a was 108 relative, HeCon Ab = 100.

B21: the He/Con_1a was 106 relative, HeCon Ab = 100.
